This note sets out measurements from patent publication US20130036481A1.

In the test the target is α2β1 integrin on human cortical neurons (human) (UniProt P17301). Description: cell-based or functional assay.

Take “LG3 C-terminal domain of human perlecan Domain V (amino acids 4188-4391), C-terminal 6xHis tag (from UniProt P98160 4188-4391) (ligand)”: the EC50 of LG3 inhibition of Aβ40 toxicity in human cortical neurons (alamarBlue viability) amounted to 50 nM.

As for “Human perlecan Domain V, recombinant, C-terminal 6xHis tag (from UniProt P98160 3687-4391) (ligand)”, the EC50 of domain V inhibition of Aβ toxicity in human cortical neurons, domain V alone (FIG. 4) turned out to be 123 nM; the EC50 of domain V inhibition of Aβ toxicity in human cortical neurons, in the presence of a mouse IgG control or the α2 antibodies 1950 and 1998 worked out at 98 nM; the EC50 of domain V inhibition of Aβ toxicity in human cortical neurons, in the presence of the αV integrin antibody stood at 47 nM; the EC50 of domain V inhibition of Aβ toxicity in human cortical neurons, in the presence of the β1 integrin antibody was under 38 nM. Also, the average EC50 of domain V inhibition of Aβ40 toxicity in human cortical neurons (alamarBlue viability, n=5 experiments) came to 164 nM.
